# Laboratory results from patent US20210147922.
# Columns and labels:
# Assay in all cases: cell_activity
# [1] = test system: AAVS1_R TALEN right monomer; conditions: paired with AAVS1_L, 2 ug per monomer, K562 cells
# [2] = test system: GA6_EK TALEN right monomer; conditions: GA6_EK pair; GA6 54% in same table
# [3] = test system: GA6_R TALEN right monomer; conditions: paired with GA6_L, 2 ug mRNA per monomer, K562 cells
# [4] = test system: GA7_EK TALEN right monomer; conditions: GA7_EK pair, CD34+ cells; GA7 50%
# [5] = test system: GA7_R TALEN right monomer; conditions: paired with GA7_L, 2 ug per monomer, CD34+ cells
# [6] = test system: AAVS1_L TALEN left monomer; conditions: paired with AAVS1_R, 2 ug per monomer, K562 cells
# [7] = test system: GA7_EK TALEN left monomer; conditions: GA7_EK pair, CD34+ cells; GA7 50%
# GA7_L TALEN left monomer = conditions: paired with GA7_R, 2 ug per monomer, CD34+ cells
# [8] = test system: GA6_L19 TALEN left monomer; conditions: paired with GA6_R, K562 cells
# [9] = test system: GA6_EK TALEN left monomer; conditions: GA6_EK pair; GA6 54% in same table
# [10] = test system: GA6_L (GA6_L14) TALEN left monomer; conditions: paired with GA6_R, K562 cells
# [11] = test system: GA6_L17 TALEN left monomer; conditions: paired with GA6_R, K562 cells
sequence,measurement,setting,value
AGGATTGGTGACAGAAA (double strand) [AAVS1 right half-site (printed top strand)],activity,[1],93 % editing
AGTGCATGGCTGCAATGTGTGA (double strand) [GA6 right half-site (printed top strand)],activity,[2],36 % editing
same,activity,[3],91 % editing
ATGGTAGAGAATGAGAGGGGGA (double strand) [GA7 right half-site (printed top strand)],activity,[4],20 % editing
same,activity,[5],70 % editing
TCCCCTCCACCCCACAGT (double strand) [AAVS1 left half-site],activity,[6],93 % editing
TGCTCAGCCCAGCTCAGCCT (double strand) [GA7 left half-site],activity,[7],20 % editing
same,activity,GA7_L TALEN left monomer,70 % editing
TGGAGTGTGTAACAATGCCT (double strand) [GA6_L19 left half-site],activity,[8],86 % editing
TGTGTAACAATGCCT (double strand) [GA6 left half-site],activity,[9],36 % editing
same,activity,[10],96 % editing
TGTGTAACAATGCCTGTG (double strand) [GA6_L17 left half-site],activity,[11],98 % editing
